B1: Cell division control protein 13 (Saccharomyces cerevisiae), P32797 (parent)
chain: MDTLEEPECPPHKNRIFVSSSKDFEGYPSKAIVPVQFVALLTSIHLTETKCLLGFSNFERRGDQSQEDQYLIKLKFKDRGSERLARITISLLCQYFDIELPDLDSDSGASPTVILRDIHLERLCFSSCKALYVSKHGNYTLFLEDIKPLDLVSVISTISTKSTNSSKHSSSELISECDLNNSLVDIFNNLIEMNRDEKNRFKFVKLIHYDIELKKFVQDQQKVLSQKSKAAAINPFFVPNRLGIPYIESQNEFNSQLMTLNVDEPTTDISNMGEEMHDSADPIEDSDSSTTSSTGKYFSSKSYIQSQTPERKTSVPNNWHDDDSGSKRKRKLSFHSPNASSIRKAISYEQLSLASVGSVERLEGKIVGMNPPQFASINEFKYCTLKLYFTQLLPNVPDKVLVPGVNCIEIVIPTRERICELFGVLNCQSDKISDILLLEKPDRISVEVERILWDNDKTASPGMAVWSLKNISTDTQAQAQVQVPAQSSASIDPSRTRMSKMARKDPTIEFCQLGLDTFETKYITMFGMLVSCSFDKPAFISFVFSDFTKNDIVQNYLYDRYLIDYENKLELNEGFKAIMYKNQFETFDSKLRKIFNNGLRDLQNGRDENLSQYGIVCKMNIKVKMYNGKLNAIVRECEPVPHSQISSIASPSQCEHLRLFYQRAFKRIGESAISRYFEEYRRFFPIHRNGSHLAKLRFDEVKHEPKKSPTTPALAEHIPDLNADVSSFDVKFTDISSLLDSSARLPRPQQTHKSNTLYSCEGRIIAIEYHASDLCFHITNELPLLQTRGLAPERVLQLHIITSKNFAYFFNRSSAYLQRQPLEEKYTQLAQFLGHSFKFNITSSLTLFPDTTVALQIWCPIECTFRELQQQLAHPKVAAAPDSGSLDCAINATVNPLRLLAAQNGVTVKKEEDNDDDAGAVPTS
partner: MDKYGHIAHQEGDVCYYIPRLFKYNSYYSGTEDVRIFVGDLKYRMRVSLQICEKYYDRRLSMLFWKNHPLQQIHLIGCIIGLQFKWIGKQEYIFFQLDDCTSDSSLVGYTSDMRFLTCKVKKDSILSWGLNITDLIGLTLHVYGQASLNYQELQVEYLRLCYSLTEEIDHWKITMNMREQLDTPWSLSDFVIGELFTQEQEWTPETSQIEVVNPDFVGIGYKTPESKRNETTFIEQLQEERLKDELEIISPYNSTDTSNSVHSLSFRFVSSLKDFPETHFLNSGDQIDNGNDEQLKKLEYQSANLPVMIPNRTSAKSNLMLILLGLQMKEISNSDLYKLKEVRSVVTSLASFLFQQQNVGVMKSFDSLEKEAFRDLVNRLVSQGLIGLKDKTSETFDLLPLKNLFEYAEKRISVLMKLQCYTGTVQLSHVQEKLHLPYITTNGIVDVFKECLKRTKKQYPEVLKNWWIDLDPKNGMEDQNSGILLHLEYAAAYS

Variants of: B1
Conditions: with stn1_yeast STN1, P38960

Effect of a mutation on the interaction, disrupting interaction strength:
P371S;C383S
C383A;M463A
C383S;L401A
C383S;Y388A

Reference: IntAct's records for PubMed 23177925
